Test results as given in US20040146519A1.
One block for each binder: values may come before it.

Key:
HLA-B*0702 (human) = assay: inhibition of 125I probe peptide, purified HLA; conditions: remark: other sources report otherwise
HLA-B*5401 (human) = assay: inhibition of 125I probe peptide, purified HLA; conditions: remark: other sources report otherwise
HLA-B*5101 (human) = assay: inhibition of 125I probe peptide, purified HLA; conditions: remark: other sources report otherwise
HLA-A*0206 (human) [1] = assay: inhibition of 125I probe peptide, purified HLA; conditions: remark: other sources report otherwise
HLA-B*5301 (human) = assay: inhibition of 125I probe peptide, purified HLA; conditions: remark: other sources report otherwise
HLA-DRB1*1302 (human) = target: T1, HLA-DRB1*1302 (human); assay: competition with 125I probe peptide, purified HLA; conditions: remark: other sources report otherwise
T1 chain 1: not shown
T1 chain 2: not shown

HLA-DRB1*1501 (human) = target: T2, HLA-DRB1*1501 (human); assay: competition with 125I probe peptide, purified HLA; conditions: remark: other sources report otherwise
T2 chain 1: not shown
T2 chain 2: not shown

HLA-A*3101 (human) = assay: competition with 125I probe peptide for purified HLA; conditions: remark: other sources report otherwise
HLA-A*0206 (human) [2] = assay: as above; conditions: remark: other sources report otherwise
HLA-A*0201 (human) = assay: competitive inhibition of 125I probe peptide, purified HLA

Binder: IPWQRLLLTI [CEA.13.I10]
IC50 (HLA-B*0702 (human)): 39 nM
IC50 (HLA-B*5401 (human)): 270 nM
IC50 (HLA-B*5101 (human)): 19 nM

Binder: LPQHLFGYSI [CEA.58.I10]
IC50 (HLA-B*5301 (human)): 930 nM
IC50 (HLA-B*0702 (human)): 212 nM

Binder: IPWQRLLLTA [CEA.13, 10 AA]
IC50 (HLA-B*5401 (human)): 3.2 nM

Binder: RWCIPWQRLLLTASL [CEA.10]
IC50 (HLA-DRB1*1302 (human)): 318 nM
IC50 (HLA-DRB1*1501 (human)): 827 nM

Binder: SLLTFWNPPT [CEA peptide, position 23, 10 amino acids]
relative binding ratio (IC50 standard/IC50 peptide) (HLA-A*0201 (human)): 0.0022

Further lines, results first:

IC50 (HLA-A*0206 (human) [1]): 80 nM
Binder: YLSGANLNV [CEA.605.V9]

IC50 (HLA-B*5301 (human)): 40 nM
IC50 (HLA-B*5401 (human)): 137 nM
Binder: YPNASLLI [CEA.102]

IC50 (HLA-A*3101 (human)): 5 nM
Binder: RTLTLFNVTR [CEA.554]

IC50 (HLA-A*0206 (human) [2]): 80 nM
Binder: YLSGANLNV [CEA.605V9]

IC50 (HLA-A*3101 (human)): 6.2 nM
Binder: RTLTLLSVTR [CEA.376]

IC50 (HLA-A*3101 (human)): 9 nM
Binder: RVLTLFNVTR [CEA.554.V2]
